As usually defined, the EC50 (read off the curve) is the midpoint of the concentration-response curve. Low values mean greater potency, high ones weaker potency. A word on the Kd: it is a measure of binding affinity in units of concentration.

The target of assay [1] is T1, CD19 on CD19-expressing Raji B cells (human, UniProt P15391 20-556).
T1 construct: whole, on cells
T1 sequence (looked up): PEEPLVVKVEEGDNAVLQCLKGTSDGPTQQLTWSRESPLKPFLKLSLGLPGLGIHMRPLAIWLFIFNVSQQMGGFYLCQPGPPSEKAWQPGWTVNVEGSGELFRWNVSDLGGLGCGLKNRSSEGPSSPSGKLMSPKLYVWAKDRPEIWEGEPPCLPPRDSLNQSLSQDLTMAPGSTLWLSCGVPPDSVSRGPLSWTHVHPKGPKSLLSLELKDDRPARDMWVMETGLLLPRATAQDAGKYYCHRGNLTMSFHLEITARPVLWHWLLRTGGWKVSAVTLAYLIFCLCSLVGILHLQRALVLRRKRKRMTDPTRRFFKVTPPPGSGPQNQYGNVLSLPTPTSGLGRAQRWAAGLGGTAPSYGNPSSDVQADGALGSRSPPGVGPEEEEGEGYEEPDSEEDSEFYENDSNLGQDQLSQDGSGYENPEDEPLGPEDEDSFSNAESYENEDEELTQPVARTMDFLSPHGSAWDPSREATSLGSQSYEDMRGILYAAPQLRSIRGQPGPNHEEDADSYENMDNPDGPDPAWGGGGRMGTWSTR
Kind of assay: whole cell binding by FACS on Raji B cells, RFU against concentration (nM, log axis). For orientation: In flow cytometry, cells or beads pass a laser one at a time.

Assay [2] addresses T1, CD19 on CD19-expressing Raji B cells. Kind of assay: FACS, Raji cells.
The target in assay [3] is T2, mouse CD19 on Mouse spleen cells (mouse, UniProt P25918).
T2 construct: on the surface of freshly isolated mouse spleen cells
T2 sequence (CD19 on the cell surface, looked up): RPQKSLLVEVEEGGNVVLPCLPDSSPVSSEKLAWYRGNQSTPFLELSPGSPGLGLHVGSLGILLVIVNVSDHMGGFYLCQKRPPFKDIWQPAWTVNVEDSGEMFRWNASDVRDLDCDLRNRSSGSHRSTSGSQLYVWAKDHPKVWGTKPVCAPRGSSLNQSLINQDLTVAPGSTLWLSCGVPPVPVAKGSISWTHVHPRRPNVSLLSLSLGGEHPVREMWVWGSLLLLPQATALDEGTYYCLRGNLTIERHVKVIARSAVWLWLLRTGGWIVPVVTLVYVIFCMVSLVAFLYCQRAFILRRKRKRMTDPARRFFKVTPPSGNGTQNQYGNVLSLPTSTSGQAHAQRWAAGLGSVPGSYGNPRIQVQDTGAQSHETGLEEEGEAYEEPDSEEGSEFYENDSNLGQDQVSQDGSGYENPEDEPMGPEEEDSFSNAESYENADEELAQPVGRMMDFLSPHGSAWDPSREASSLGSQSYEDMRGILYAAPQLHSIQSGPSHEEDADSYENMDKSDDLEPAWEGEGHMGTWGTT
Put plainly: FACS on freshly isolated mouse spleen cells, Mean RFU normalized to human IgG.

In assay [4] the target is T3, cynomologous CD3 receptor antigen (coated, ELISA) (cynomolgus [Macaca fascicularis], UniProt Q95LI5 22-117).
T3 sequence (looked up): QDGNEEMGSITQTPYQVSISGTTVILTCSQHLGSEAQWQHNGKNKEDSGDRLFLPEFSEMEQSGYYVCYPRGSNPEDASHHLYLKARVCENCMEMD
Put plainly: ELISA on coated cynomolgus CD3 receptor antigen ('Cyno-CD3-HEK'), anti-human Fcgamma specific secondary antibody, TMB, OD450. On the technique in general: An ELISA detects its analyte on a solid surface through an enzyme-linked reagent.

Assay [5] concerns the target CD16aWT (UniProt P08637 17-208). Kind of assay: SPR, antibody captured, FcγR injected. On the technique in general: In SPR one partner is held on a chip, and binding of the other changes the refractive index at the surface.
The target of assay [6] is T4, CD32aWT (UniProt P12318 36-218).
T4 construct: also called CS32a
T4 sequence (looked up): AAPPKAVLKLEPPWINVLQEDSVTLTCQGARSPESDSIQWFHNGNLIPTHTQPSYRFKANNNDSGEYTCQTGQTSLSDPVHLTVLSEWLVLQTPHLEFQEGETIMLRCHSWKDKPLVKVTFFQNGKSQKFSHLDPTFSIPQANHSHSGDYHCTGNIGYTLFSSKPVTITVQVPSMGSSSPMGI
Put plainly: SPR, antibody captured, FcγR injected.

In assay [7] the target is T5, CD32bWT (UniProt P31994 43-217).
T5 sequence (looked up): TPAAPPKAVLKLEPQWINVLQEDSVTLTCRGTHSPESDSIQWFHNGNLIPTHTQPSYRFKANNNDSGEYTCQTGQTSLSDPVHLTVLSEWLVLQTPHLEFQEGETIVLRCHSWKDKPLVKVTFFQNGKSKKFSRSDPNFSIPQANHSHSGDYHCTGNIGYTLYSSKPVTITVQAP
Put plainly: SPR, antibody captured, FcγR injected.

For assay [8], the target named is T6, CD3 on CD3-expressing T cells (Jurkat, HPB-ALL) (UniProt P07766 23-207).
T6 construct: whole, on cells; A multi-chain complex on cells; also called CD3 complex
Kind of assay: FACS, HPB-ALL cells.

Assay [9] concerns the target T6, CD3 on CD3-expressing T cells (Jurkat, …). Put plainly: FACS, HBP-ALL T cells.
For assay [10] the target is unchanged. Put plainly: FACS, Jurkat cells.

B1: v873, bispecific anti-CD19 BiTE (VL-VH) scFv / anti-CD3 BiTE (VH-VL) scFv on a heterodimeric IgG1 Fc (bispecific antibody)
chain 1: DIQLTQSPASLAVSLGQRATISCKASQSVDYDGDSYLNWYQQIPGQPPKLLIYDASNLVSGIPPRFSGSGSGTDFTLNIHPVEKVDAATYHCQQSTEDPWTFGGGTKLEIKGGGGSGGGGSGGGGSQVQLQQSGAELVRPGSSVKISCKASGYAFSSYWMNWVKQRPGQGLEWIGQIWPGDGDTNYNGKFKGKATLTADESSSTAYMQLSSLASEDSAVYFCARRETTTVGRYYYAMDYWGQGTTVTVSSAAEPKSSDKTHTCPPCPAPELLGGPSVFLFPPKPKDTLMISRTPEVTCVVVDVSHEDPEVKFNWYVDGVEVHNAKTKPREEQYNSTYRVVSVLTVLHQDWLNGKEYKCKVSNKALPAPIEKTISKAKGQPREPQVYTYPPSRDELTKNQVSLTCLVKGFYPSDIAVEWESNGQPENNYKTTPPVLDSDGSFALVSKLTVDKSRWQQGNVFSCSVMHEALHNHYTQKSLSLSPGK
chain 2: not shown
notes: chain A/B is assigned by order only; also called bispecific CD19-CD3(VH-VL-BiTE)
Consider B1, for which the “EC50 (read off the curve)” value in [1] is approximately 3 nM. This molecule registered a Kd in assay [2] of 2.7 nM. The binding result in [3] is recorded as “no binding (tested: 100 nM)”.

B2: v1666-213-A (bispecific antibody)
chain 1: not shown
chain 2: DIQLTQSPASLAVSLGQRATISCKASQSVDYDGDSYLNWYQQIPGQPPKLLIYDASNLVSGIPPRFSGSGSGTDFTLNIHPVEKVDAATYHCQQSTEDPWTFGGGTKLEIKGGGGSGGGGSGGGGSQVQLQQSGAELVRPGSSVKISCKASGYAFSSYWMNWVKQRPGQGLEWIGQIWPGDGDTNYNGKFKGKATLTADESSSTAYMQLSSLASEDSAVYFCARRETTTVGRYYYAMDYWGQGTTVTVSSAAEPKSSDKTHTCPPCPAPEAAGGPSVFLFPPKPKDTLMISRTPEVTCVVVSVSHEDPEVKFNWYVDGVEVHNAKTKPREEQYNSTYRVVSVLTVLHQDWLNGKEYKCKVSNKALPAPIEKTISKAKGQPREPQVYVLPPSRDELTKNQVSLLCLVKGFYPSDIAVEWESNGQPENNYLTWPPVLDSDGSFFLYSKLTVDKSRWQQGNVFSCSVMHEALHNHYTQKSLSLSPGK
For the molecule B2, in [4], the binding result is “no binding (tested: 300 nM)”.

B3: v875, bispecific anti-CD19 BiTE (VL-VH) scFv / anti-CD3 OKT3 (VL-VH) scFv on a heterodimeric IgG1 Fc (bispecific antibody)
chain 1: DIQLTQSPASLAVSLGQRATISCKASQSVDYDGDSYLNWYQQIPGQPPKLLIYDASNLVSGIPPRFSGSGSGTDFTLNIHPVEKVDAATYHCQQSTEDPWTFGGGTKLEIKGGGGSGGGGSGGGGSQVQLQQSGAELVRPGSSVKISCKASGYAFSSYWMNWVKQRPGQGLEWIGQIWPGDGDTNYNGKFKGKATLTADESSSTAYMQLSSLASEDSAVYFCARRETTTVGRYYYAMDYWGQGTTVTVSSAAEPKSSDKTHTCPPCPAPELLGGPSVFLFPPKPKDTLMISRTPEVTCVVVDVSHEDPEVKFNWYVDGVEVHNAKTKPREEQYNSTYRVVSVLTVLHQDWLNGKEYKCKVSNKALPAPIEKTISKAKGQPREPQVYTYPPSRDELTKNQVSLTCLVKGFYPSDIAVEWESNGQPENNYKTTPPVLDSDGSFALVSKLTVDKSRWQQGNVFSCSVMHEALHNHYTQKSLSLSPGK
chain 2: not shown
notes: Chain A/B is assigned by order only; copies: 1 + 1
Turning to B3, the Kd in [5] amounted to 1000 nM; in assay [6] it was 590 nM; in [7], 430 nM; in assay [8], 4.7 nM; in assay [9], 19.1 nM; in assay [10] it was 21.4 nM. Besides, in [10], the “Bmax (OD450)” value is 1.59 OD450. In assay [3], the binding result is recorded as “no binding (tested: 100 nM)”.

For the origin of these results see patent US20240343802A1 (Zymeworks, published 2024).
